Data reported in patent publication US10857214B2, “Compositions and methods for treating gluten intolerance and disorders arising therefrom” (Codexis, Inc., priority 2015, dated 2020).
Square brackets hold non-standard residues; d marks the D form. Peptide text beside a SMILES is read from it. * marks the point of attachment. Sta = CC(C)C[C@H](N)[C@@H](O)CC(=O)O; Isovaleryl = CC(C)CC(=O)*

Assays:
[1] = tested on: Nepenthes enzymes; experiment: enzyme inhibition testing, BSA digestion by Nepenthes enzymes, SDS-PAGE; type: biochemical; conditions: BSA 1 mg/ml, 0.12 μM Nepenthes enzymes, 15 min at 37° C.; inhibitors at 1 mM
Method: Inhibitors: PMSF (phenylmethylsulfonyl fluoride), P (pepstatin), L (leupeptin), E (EDTA and EGTA), DTT (dithiothreitol), ZPP (Z-Pro-Pro-aldehyde-dimethyl acetal). All inhibitor concentrations at 1 mM except where noted. Extract: fluid protein extract, M: lane markers. For enzyme inhibition testing, bovine serum albumin (1 mg/ml) was digested with 0.12 μM Nepenthes enzymes for 15 min at 37° C., quenched by brief boiling and then analyzed by 10% SDS-PAGE. The enzymes were pretreated with controls and inhibitors at 4° C. for 2 days prior to digestion experiments. PMSF, pepstatin, leupeptin, EDTA, EGTA, DTT from Sigma-Aldrich, and ZPP (Z-Pro-Pro-aldehyde-dimethyl acetal) from Bachem.

[2] = tested on: protein standards; experiment: cleavage preferences on protein standards, LC-MS/MS; type: biochemical
Method: C-terminal cleavage preferences (P1 position) as a function of storage time at elevated temperature. Fluid concentrate was incubated at 37° C. for 0-7 days. […] Data were collected from 2-minute in-solution digestions of protein standards at 37° C. (pH 2.5), and cleavage preferences were determined using LC-MS/MS methods. For each amino acid, cleavage preferences were estimated by calculating the number observed terminal residues relative to the total number of residues, in percent.
Data were generated and collected as described for FIG. 1A.
Data are shown as relative % cleavage to the total, as defined above, using LC-MS/MS data from a set of protein standards. Samples were digested in solution for 5 minutes at 37° C. in this comparison, for all three enzyme preparations.
Data are provided as described for FIG. 1C.
Data was generated using HCD fragmentation on an LC-Orbitrap Velos instrument, and data searched against the sequence of APLF in Mass Spec Studio assuming no enzyme specificity, and results were cut off at a peptide false discovery rate (FDR) of 0.5%. Figure discloses SEQ ID NO: 87.

[3] = tested on: crude gliadin; experiment: SDS-PAGE and proteomic LC-MS/MS analysis of crude gliadin digests; type: biochemical, Triticum aestivum; conditions: crude gliadin slurry digested with purified neprosin alone
Method: Digestions at pH 2.5 and 37° C., for 90 min. All concentrations in μM. M: Molecular weight markers, and gliadin: total crude gliadin in the absence of protease. […] Peptide data from LC-MS/MS runs, with intensities obtained using Protein Deconvolution 1.0. […] A stock gliadin slurry of 20-50 mg/ml was prepared in acidic solution (100 mM glycine HCl, pH 2.5) and briefly sonicated to further break up large particulates and promote suspension. Digestions of 10 mg/mL gliadin slurries were initiated by addition of enzyme (pepsin, fluid enzymes or both) and held at 37° C. with gentle rotation. Digest progress was monitored by gravimetric analysis, optical transmission, SDS-PAGE and mass spectrometry. For gravimetric analysis, digests were quenched by boiling and treated with TCA/chloroform, followed by centrifugation to recover undigested or poorly digested protein. For monitoring with optical transmission, digestion reactions were conducted in 96-well plate with ≥3 replicates of each reaction condition, and turbidity monitored at 595 nm at 37° C. every 2 minutes, for 90 minutes (SpectraMax plate reader, Molecular Devices). The plate was shaken at medium speed briefly between measurements. The digests were quenched after 90 min reaction by boiling for 10 minutes (confirmed to have no impact on digestion profile, a posteriori). An aliquot of the reaction mixture was analyzed on an 8% SDS-PAGE gel. The remaining amount was centrifuged and the supernatant was analyzed by mass spectrometry. Supernatant was analyzed by data-dependent LC-MS/MS, in two 1-hour reversed phase gradient runs, configured for top-10 ion selection using CID in a high/low configuration. In one run, ion selection was restricted to 2+ and higher charge states. In the other run, ion selection was applied to 1+ charge states only. Data from both runs were combined and searched against all UniprotKB/Swiss-Prot entries for gliadin and glutenin from Triticum aestivum (25 proteins), using Mascot v2.3, configured for non-specific digestions and filtered for peptide hits with p<0.05. For estimation of peptide size distribution, all LC-MS spectra were combined and deconvoluted in Protein Deconvolution v1.0, with appropriate settings. For label-free quantitative analysis using the subset of the digest identified in the database search, the hit list was combined with the raw data in Mass Spec Studio and used to generate a set of peptide ion chromatograms, integrated over all isotopes to determine a weight-average intensity for each peptide sequence identified.

[4] = tested on: NOD DQ8 mice; experiment: transgenic NOD/HLA-DQ8 mouse model of gliadin sensitivity

## CC(C)CC(=O)N[C@H](C(=O)N[C@H](C(=O)N[C@@H](CC(C)C)[C@@H](O)CC(=O)N[C@@H](C)C(=O)N[C@@H](CC(C)C)[C@@H](O)CC(=O)O)C(C)C)C(C)C [Pepstatin, pepstatin] (Isovaleryl-VV[Sta]A[Sta]-OH)
[1]
  suppression of enzyme activity by proteolytic inhibitors: could only partially suppress enzyme activity

B1: recombinant nepenthesin I: recombinant aspartic protease of Nepenthes, SEQ ID NO.: 21 (protein)
chain: NGPSGVETSVYAGDGEYLMNLSIGTPAQPFSAIMDTGSDLIWTQCQPCTQCFNQSTPIFNPQGSSSFSTLPCSSQLCQALSSPTCSNNFCQYTYGYGDGSETQGSMGTETLTFGSVSIPNITFGCGENNQGFGQGNGAGLVGMGRGPLSLPSQLDVTKFSYCMTPIGSSTPSNLLLGSLANSVTAGSPNTTLIQSSQIPTFYYITLNGLSVGSTRLPIDPSAFALNSNNGTGGIIIDSGTTLTYFVNNAYQSVRQEFISQINLPVVNGSSSGFDLCFQTPSDPSNLQIPTFVMHFDGGDLELPSENYFISPSNGLICLAMGSSSQGMSIFGNIQQQNMLVVYDTGNSVVSFASAQCGAS
[2]
  C-terminal (P1) cleavage specificity: absence of C-terminal proline (P) cleavage

B2: neprosin: 29 kDa prolyl endoprotease isolated from Nepenthes pitcher fluid (fraction 2), SEQ ID NO.: 1 (protein)
chain: MQAKFFTFVILSSVFYFNYPLAEARSIQARLANKPKGTIKTIKGDDGEVVDCVDIYKQPAFDHPLLKNHTLQMQPSSYASKVGEYNKLEQPWHKNGECPKGSIPIRRQVITGLPVVKKQFPNLKFAPPSANTNHQYAVIAYFYGNASLQGANATINIWEPNLKNPNGDFSLTQIWISAGSGSSLNTIEAGWQVYPGRTGDSQPRFFIYWTADGYTSTGCYDLTCPGFVQTNNYYAIGMALQPSVYGGQQYELNESIQRDPATGNWWLYLWGTVVGYWPASIYNSITNGADTVEWGGEIYDSSGTGGFHTTTQMGSGHFPTEGYGKASYVRDLQCVDTYGNVISPTANSFQGIAPAPNCYNYQFQQGSSELYLFYGGPGCQ
[3]
  weighted average peptide length for the low molecular weight fraction: 12.5
[2]
  C-terminal (P1) cleavage specificity: dominant Pro-X cleavage specificity

B3: recombinant nepenthesin II: recombinant aspartic protease of Nepenthes, SEQ ID NO.: 20 (protein)
chain: QSSSGIETPVYAGDGEYLMNVAIGTPDSSFSAIMDTGSDLIWTQCEPCTQCFSQPTPIFNPQDSSSFSTLPCESQYCQDLPSETCNNNECQYTYGYGDGSTTQGYMATETFTFETSSVPNIAFGCGEDNQGFGQGNGAGLIGMGWGPLSLPSQLGVGQFSYCMTSYGSSSPSTLALGSAASGVPEGSPSTTLIHSSLNPTYYYITLQGITVGGDNLGIPSSTFQLQDDGTGGMIIDSGTTLTYLPQDAYNAVAQAFTDQINLPTVDESSSGLSTCFQQPSDGSTVQVPEISMQFDGGVLNLGEQNILISPAEGVICLAMGSSSQLGISIFGNIQQQETQVLYDLQNLAVSFVPTQCGAS
[2]
  C-terminal (P1) cleavage specificity: absence of C-terminal proline (P) cleavage
[4]; gliadin codigested with pepsin 100:1 and fluid enzyme 264:1 or nepenthesin II 100:1, pepsin alone is positive control
  small intestinal CD3+ intraepithelial lymphocyte (IEL) counts: significant reductions in IEL counts, to levels indistinguishable from the gliadin-free diet control
[4]; sensitized mice challenged three times per week for three weeks with 5 mg treated gliadin
  tolerability: well tolerated
